Test results as given in the supplement of paper PMC12764529.
± gives the half width of the 95% confidence interval.

Test: folding stability dG unfold from trypsin proteolysis; higher = more stable
Summary of the method: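 Only designs with AlphaFold2 dimer inter-PAE above 15 were retained; each was a mini-protein under 80 residues with no cysteine, in a PA-tagged cDNA display construct. After digestion with trypsin and chymotrypsin and sequencing, K50 was inferred by Bayesian fitting of counts, and unfolding free energy was derived per protease or combined against a sequence-predicted unfolded-state K50 and a shared folded-state K50.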

Compared with “SAGGEIKIKKSKDGKTLYIEIKIKAGEKVKLKLTITLPNGKKAEITSVEIIEKNGELYIKVEIKIKDSAGGS [r16_499_TrROS_Hall]”, “SAGGKEWYIKVSIEHRNPNNGEKRELSITIPVEGMSAEEALDIARELARHLPPENVKIEVDIVPLDDSAGGS [r16_774_TrROS]” is lower in “folding stability dG unfold” value: 16.4 ± 1.17 kJ/mol for the first, 7.46 ± 0.213 kJ/mol for the second.

Compared with “SAGGSAGGSAGMKEGEKPKVKIEIDVLIEVDGKLYRVRAEAEINEDGEITIKVEIEELPDSAGGSAGGSAGG [r11_551_TrROS_Hall]”, “SAEEELRKALENMSDEELEALLRAAAPPPKTVTIRLSEEELEKLAQELADEYNVTVTVEVDGKTLTLTLSAG [r14_7_TrROS_Hall]” is lower in “folding stability dG unfold” value: 10 ± 0.46 kJ/mol for the first, 7.07 ± 0.1 kJ/mol for the second.

First: SAGGSAGGSIEIPGGYTIPSSLSEEEAKEAAKKLFLEKNPELGVKEVEVKVETKNGKKTITVVKSAGGSAGG [r6_558_JUSTAS]
Second: SAGGSAGGSKPVLKITVTNEKGEKQTISLDELQAETGLSAEEIAARLAALLPPGAKITIEPVPSAGGSAGGS [r12_399_TrROS_Hall]
The “folding stability dG unfold” value of the first is lower: 2.68 ± 0.31 kJ/mol for the first, 7.56 ± 0.1 kJ/mol for the second.

“SKDPNNEWVVIKFEVTIPVPPGQKPITADEIASQVRQIMQNHGMEITSVEVEYRGNQVTVSVEIVIPKKASA [r9_1134_TrROS]” and “SEKVKKELNEAGYPVKDIKFVPEKGYAYITVEVYVPEVDKKVEKEIVIPFPDSATPEQLTEAARKALEADSA [r9_184_TrMRF]” are within error of each other in “folding stability dG unfold” value: 13.5 ± 0.795 kJ/mol for the first, 12.7 ± 0.46 kJ/mol for the second.

Compared with “SAGGSAGGSAGKKITIPNLDVMRNPDDGMAFIQFGGQMIMIPPNVKIEQDPNGWMEIELPSAGGSAGGSAGG [r17_34_TrROS]”, “SAGGSAGGSAGMPVKVVLVKWKGGGLEPEGGEEREVEIGPEELEKLVKEAEKEGYEVYPASAGGSAGGSAGG [r17_18_TrMRF]” is lower in “folding stability dG unfold” value: 2.62 ± 0.268 kJ/mol for the first, 0.691 ± 0.46 kJ/mol for the second.

Compared with “SKKVTIMIMIRRRDPEDGKYRPIPPEFILEMVRRARKKGKKVKITFMNPDNPWAKRLAKRAKEEGIKIEWSA [r9_468_TrROS]”, “SAGGSAGGSAGGPANLNDEPVLLIPVSSELLKLIPAEKLVELAAKLASPNVKRIYVLAPESAGGSAGGSAGG [r7_487_TrMRF]” is lower in “folding stability dG unfold” value: 8.35 ± 0.209 kJ/mol for the first, 0.5 ± 0.46 kJ/mol for the second.

Compared with “SAGGEKTYMVRIDIEYRTPGKPREIDLMVPIKSPEQAREQLDKIADFLAKEHPDNWRIKVEIYPMEDSAGGS [r16_475_TrROS]”, “SAGGSAGGSSLTLRLRLRLRVRVLDEETGELSEFEVEVELELRFEPAPPPPPPPLVLRDGKLVSAGGSAGGS [r12_140_TrROS_Hall]” is higher in “folding stability dG unfold” value: 5.35 ± 0.753 kJ/mol for the first, 14.4 ± 0.628 kJ/mol for the second.

First: SAGGMVTLTYTDLVEEDPEVKAAKARELAEELREKGYTVTDATFDPEAGTLTITVSADDATLEEIAASAGGS [r8_344_TrMRF]
Second: SAGPLTVTVEGDTLTVTVPLTDVPADATVRVTVTVGDKTEEYTVPPSESITVTVPSSAVEVTVERLPPASAG [r5_867_JUSTAS]
The “folding stability dG unfold” value of the first is lower: 5.26 ± 0.297 kJ/mol for the first, 8.76 ± 0.356 kJ/mol for the second.

Going from “SMQINVERNPENGTVIIHIPMEDMPPENIREILKDLPPNNKRVTIHMHDPPYMRWLKELAKEKGFPIKITSA [r9_919_TrROS]” to “SAGGSKTVELEIEIDGKLIKIRVEENENGELTVRIEIYDKNGKKVKEIEIKVKSLEEALKALEKLLSAGGSA [r2_82_TrROS_Hall]”, the “folding stability dG unfold” value rises from 3.45 ± 0.41 kJ/mol to 13.4 ± 0.502 kJ/mol.

Going from “SAGGVLPSDPVTVTVTIPVPAANAETDGRLPPQPQTINLEIGGPSEEAIRALLEALFPPGTEYEILLSAGGS [r16_282_JUSTAS]” to “SAGGSAMKIEEIEKVELKKNENGELTAKIIIKDKKTNKYIEIEITVKPGMTLEEIKKLAEELLKKLSAGGSA [r15_181_TrROS_Hall]”, the “folding stability dG unfold” value rises from 7.41 ± 0.268 kJ/mol to 14.3 ± 0.544 kJ/mol.

Going from “SAGGMKVDPKTNITTIEFPSSNLPELKEAIEKTGEKPVVVILKDPNSDREVRITLTKEEALKYLEKKSAGGS [r16_797_JUSTAS]” to “SAGGMKIEFDEKTKRITITLPDGKKVEIELKDGRKVEITFERVDGKLKVVIKHKNEEEALELAKKLLSAGGS [r16_623_TrROS_Hall]”, the “folding stability dG unfold” value rises from 0.875 ± 0.586 kJ/mol to 4.81 ± 0.36 kJ/mol.

Compared with “SNPISAVVPSPGGRYVLVVEYKDGSVEVYEFEGLSTAEEAKERALALLKESTEGEPREITRVVVLPAPPGSA [r9_1135_TrMRF]”, “SAGGSAMKAKEIKRLKLKDRPLVVIFLENPEGGYSVLVIPLENPEKVEELLEELVKEGLLDEITPESAGGSA [r15_575_TrMRF]” is lower in “folding stability dG unfold” value: 18 ± 0.711 kJ/mol for the first, 4.3 ± 0.13 kJ/mol for the second.

First: SAGGSAPFPIKISTIRYPDGYIRMEIWIPPDAPIKIKFPNGFEMEVEPVPNGYYRITMYFRIPKEDSAGGSA [r15_523_TrROS]
Second: SAGKELTIEIVIERNGELITLTIKAKSEEELLEALKKLLEELGFEVEDIKIEKKDGEVIVTVTIRLPKKSAG [r5_946_TrROS_Hall]
The “folding stability dG unfold” value of the first is higher: 15.8 ± 0.393 kJ/mol for the first, 11.3 ± 0.544 kJ/mol for the second.

First: SAGGSAGGSKKKVTINIVLTVKPGETLTLTVEITIDGKKYKVTKTLTYDPKTNKLVLTATVEPSAGGSAGGS [r12_136_TrROS_Hall]
Second: SAGGMVTITVSIEEGKGYAVITITIDDETLTIKIPIPNMTEEDIKAKAEEIAKELAEKYGIEEIKLESAGGS [r16_249_JUSTAS]
The “folding stability dG unfold” value of the first is higher: 15.8 ± 1.34 kJ/mol for the first, 12.9 ± 0.669 kJ/mol for the second.

Going from “SAGGSAGGSPVLLAESVTTLPDGTVVRTRLVRLPDGTYLRETETYPPGGAPARAVERFDDPRLASAGGSAGG [r6_299_JUSTAS]” to “SMTVTTDPSSLTFTLPPTYTSVEQAREALEELGFKLPSSVKSITIESVDEGKNLNTITVTFDDPEALKKLSA [r9_820_JUSTAS]”, the “folding stability dG unfold” value falls from 6.93 ± 0.163 kJ/mol to 3.1 ± 0.126 kJ/mol.

With “SAGGSAGGSAGGSPPNMEPVETQEYQIGNDFIIKVDTYRMPDPDMYFVDIEITPDALKASAGGSAGGSAGGS [r4_163_TrROS]” the “folding stability dG unfold” value was 3.43 ± 0.502 kJ/mol.
